According to article PMC4416025, “Characterization of Hydrogen Metabolism in the Multicellular Green Alga Volvox carteri” (PLoS ONE, 2015):

Assays:
[1] = test system: T1, C[n+]1ccc(-c2cc[n+](C)cc2)cc1; assay: H2 evolution assay, gas chromatography; format: biochemical, Volvox carteri; conditions: electron donor, methyl viologen reduced in situ by sodium dithionite; anaerobic
T1 construct: cDNA-derived, N-terminal 6xHis tag with GGG linker; sense cloning primer encodes tag then MDELDKP; tag removal not mentioned

[2] = test system: T2, C[n+]1ccc(-c2cc[n+](C)cc2)cc1; assay: H2 evolution assay, gas chromatography; format: biochemical, Volvox carteri; conditions: electron donor, methyl viologen reduced in situ by sodium dithionite; anaerobic
T2 construct: cDNA-derived, N-terminal 6xHis tag with GGG linker; sense cloning primer encodes tag then KCTSAV (no start Met, N-terminus probably truncated); maturation possibly incomplete

Substance | Km [1] [µM] | Km [2] [µM]
HYDA1 (Volvox carteri f. nagariensis) | 2760 | –
HYDA2 (Volvox carteri f. nagariensis) | – | 2820
